By stoichiometry N is commonly meant a count of units in the complex or per binding partner.

This test has as its target H10CLPX Zinc binding domain (CLPXZBD) (human). Kind of test: SEC. On the technique in general: Size exclusion chromatography separates by hydrodynamic size, large species first.

“H10CLPX Zinc binding domain (CLPXZBD) (domain or fragment)”: the stoichiometry N turned out to be 2.

B1: H10PDIP38 (PDIP38 with an N-terminal H10-tag) (natural protein)
chain: SSRNRPEGKVLETVGVFEVPKQNGKYETGQLFLHSIFGYRGVVLFPWQARLYDRDVASAAPEKAENPAGHGSKEVKGKTHTYYQVLIDARDCPHISQRSQTEAVTFLANHDDSRALYAIPGLDYVSHEDILPYTSTDQVPIQHELFERFLLYDQTKAPPFVARETLRAWQEKNHPWLELSDVHRETTENIRVTVIPFYMGMREAQNSHVYWWRYCIRLENLDSDVVQLRERHWRIFSLSGTLETVRGRGVVGREPVLSKEQPAFQYSSHVSLQASSGHMWGTFRFERPDGSHFDVRIPPFSLESNKDEKTPPSGLHW
As to B1, the stoichiometry N worked out at 1.
